How the values were obtained:
Test in all cases: ITC
T-Mod(Dss1A) = T-Mod(Dss1A) (UniProt P31948)
T-Mod(Dss1B) = T-Mod(Dss1B) (UniProt P31948)
the T-Mods = biological target: the T-Mods

| Kd (T-Mod(Dss1A)) | stoichiometry N (T-Mod(Dss1A)) | Kd (T-Mod(Dss1B)) | stoichiometry N (T-Mod(Dss1B)) | Kd (the T-Mods) | Molecule |
| --- | --- | --- | --- | --- | --- |
| 20.2 µM | 0.8 | 18.6 µM | 1.1 |  | Dss1-C19 peptide (from UniProt P60896 52-70) |
| 157 µM | 0.8 | 665 µM |  |  | Dss1-C19 peptide mutant R57A (from UniProt P60896 52-70) |
|  |  |  |  | 175 µM | Sem1 (natural protein) MSTDVAAAQAQSKIDLTKKKNEEINKKSLEEDDEFEDFPIDTWANGETIKSNAVTQTNIWEENWDDVEVDDDFTNELKAELDRYKRENQ |
